Experimental data: the Human Domainome abundance scans (Beltran et al. 2025)

B1: Lysine-specific demethylase 2B, residues 656 to 722; numbered along this chain, Q8NHM5 (parent)
chain: LPHTAVCLVCGEAGKEDTVEEEEGKFNLMLMECSICNEIIHPGCLKIKESEGVVNDELPNCWECPKC

Variants of: B1
Experiment: abundance fitness (aPCA) (normalised: wild type 0, dead -1); higher = more abundant; growth selection in yeast, the domain comes from the species named
Settings: Homo sapiens

Abundance fitness, by site and new letter:
G14: F 0.104, I -0.418, M -0.172, N -0.003, R 0.04, L -0.508, S -0.043, C -1.04, V -0.139, T -0.24, K -0.229, A -0.428, E -0.395, W -0.635, Q -0.009
G24: V -0.021, N 0.123, Q -0.123, W -0.526, R -0.121, P -0.481, C -0.415, T 0.019, Y 0.154, A 0.011, L 0.045, M 0.375, S 0.15, K -0.051, H 0.346, F 0.006, I -0.049, E 0.013
L30: G -0.209, H -0.603, F -0.778, A -0.35, C -0.232
V9: T 0.127, S -0.1, W -0.727
L28: G -0.076, M 0.364, W 0.039, P -0.162, T 0.241, K 0.152, H 0.118, N 0.476, D -0.068, A 0.124, S 0.068, R -0.148, F 0.081, C -0.16, Y -0.169
K25: I -0.453, C -0.329, T -0.432, G -0.33, W -0.859, V -0.525, M -0.238, S -0.348, H -0.31, P -0.787, L -0.441, A -0.242, F -0.602, R -0.324, Y -0.677, N -0.118
T18: C -0.213, L -0.042, I -0.14, D -0.527, R -0.188, K -0.131, P -0.268, N -0.026, E -0.471, Q -0.062, F -0.113, M -0.092, G -0.399, Y -0.427, A -0.514, V -0.569, W -0.331
A13: D -0.138, S 0.177, L -0.077, N -0.618, T -0.022, I 0.169, F 0.001, M 0.286, G 0.387, V 0.085, Y -0.117, W -0.228, Q 0.471, E 0.214, C -0.297, K 0.175, H -0.437, R 0.443
K15: Q -0.378, I -0.305, G -0.206, L -0.154, P -0.609, D -1.01, W 0.017, Y -0.583, H -0.65, C -0.611, M 0.12, N -0.751, E -0.175, T -0.202, R -0.355, A -0.525, F -0.368
C10: V -1, M -0.613, L -1.01, K -0.124, H -0.828, F -0.868, S -0.332, I -1.04, N -0.259, Q -0.528, T -0.244, W -1.14, R -0.53, E -0.329, A -0.37, P -0.517, Y -0.66, G -0.277
M29: S 0.039, A -0.297, I -0.652, Q -0.15, W -0.522, D -0.552, P -0.267, G -0.247, H -0.31, L -0.274, V -0.318, E -0.362, R 0.278, C -0.026
N27: A 0.091, E -0.044, L -0.137, G -0.113, R -0.036, V -0.472, I -0.275, Y -0.179, Q -0.206, S -0.085, M 0.077, K 0.064, D -0.058, T -0.169, P -0.038, F -0.22, C -0.706
V19: L 0.017, R 0.056, T 0.013, W -0.429, E -0.469, A -0.049, D -0.459, S -0.151, F 0.151, I -0.131, Y -0.295, M -0.067, H -0.24, G -0.193
F26: S -0.343, P -0.165, E -0.176, R -0.018, I 0.028, V -0.164, H -0.343, D -0.4, L -0.297, G -0.278, T -0.155, A -0.204, M 0.062, N 0.053, K -0.257, Q -0.37, Y -0.234
E23: G 0.13, T -0.028, D -0.016, P -0.342, S 0.185, L -0.354, W -0.554, Y -0.36, N -0.05, V 0.035, A 0.004, F -0.058, Q -0.21, K 0.157, C -0.193, R -0.058, M -0.088
D17: K -0.174, P -0.168, T -0.194, G 0.104, V -0.088, N -0.035, Y -0.315, F -0.017, L -0.369, R -0.066, A -0.173, M 0.392, I 0.068, Q -0.091, C 0.039, H 0.099, S -0.083, E -0.069, W -0.553
E20: Q -0.126, S -0.191, D -0.276, V -0.03, F -0.343, L -0.146, R 0.033, G 0.035, H -0.176, A -0.046, W -0.4, C -0.105, T -0.169, P -0.081
G11: R -0.051, M -0.308, C -0.541, A -0.139, W -0.533, T -0.354, Q 0.129, I -0.828, F -0.063, L 0.046, N -0.382, S -0.113, P -0.626, H -0.362, E -0.174, K 0.222
E12: G 0.099, W -0.224, Q 0.078, M 0.089, P -0.458, A -0.139, T 0.045, I -0.357, V -0.303, N -0.365, R -0.016, C -0.159
E22: T 0.171, C -0.235, M 0.113, P -0.449, L -0.011, K 0.261, W -0.308, H -0.099, I -0.131, A 0.032, S -0.01, G -0.009, N -0.162, Y -0.291, Q 0.086, V -0.049, D -0.153
E21: Y -0.035, W -0.354, R 0.034, G 0.12, P 0.033, Q -0.324, A 0.107, K 0.022, M -0.062, V 0.06, F -0.559, T 0.238, C -0.068, L -0.284, D -0.028, S 0.305, H 0.264, I -0.566
E16: C -0.556, V -0.258, N -0.646, A -0.378, G -0.137, Y -0.786, L -0.283, F -0.497, S -0.204, Q 0.022, P -0.043, W -0.638, I -0.467, R -0.148, T 0.167, D -0.609, M -0.148
